For this assay, the target named is Paracoccidioides americana (Pb03) Cbp1 (Paracoccidioides americana (Pb03)). The assay is described as follows: crystal structure.

Our source for the stoichiometry N values is article PMC9255746.

In the case of “Paracoccidioides americana (Pb03) Cbp1 (natural protein)”, the stoichiometry N came out at 2.
